Measurements taken from PMC8973899.

Biological target: BD-GmSPX8 (soybean (Glycine max))

luciferase (LUC) signal of E-box-LUC in N. benthamiana leaves with PSK-GmPTF1 and PSK-GmSPX8 against PSK-GmPTF1 alone: 50%
β-galactosidase activity of yeast cells AH109 with pGBKT7-BD-GmPTF1 and pGADT7-AD-GmSPX8 against pGBKT7-BD-GmPTF1 alone: 2 times
Substance: AD-GmPTF1 (natural protein)
